# Molecular target: ST2 receptor (isolated protein used in ELISA and in the fluorescence emission assay) (UniProt Q01638)
# Assay: fluorescence emission before and after incubation with the receptor; IL-33 analogues at 50 ug/mL, fluorescence emission measured before and after incubation with ST2 at 200 ug/mL, n = 3
substance,measurement,value
IL-33(6) (from UniProt O95760 1-270) (ligand),fold increase of fluorescence emission upon receptor binding,4 fold

# From PMC10823590
